T1: OAS1 p42 isoform (transcript variant 2), wild type (human), P00973-2
T1 sequence: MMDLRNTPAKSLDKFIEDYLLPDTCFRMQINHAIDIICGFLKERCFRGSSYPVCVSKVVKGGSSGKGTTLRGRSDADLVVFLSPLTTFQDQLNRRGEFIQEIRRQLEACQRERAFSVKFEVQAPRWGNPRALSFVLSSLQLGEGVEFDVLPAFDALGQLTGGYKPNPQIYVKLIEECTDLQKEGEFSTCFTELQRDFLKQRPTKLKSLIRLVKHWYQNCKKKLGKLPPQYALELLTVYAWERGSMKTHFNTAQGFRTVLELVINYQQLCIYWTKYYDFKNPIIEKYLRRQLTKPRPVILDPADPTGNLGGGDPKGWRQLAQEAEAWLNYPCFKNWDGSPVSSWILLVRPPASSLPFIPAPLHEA

T2: OAS1 p42 isoform (transcript variant 2), wild type (human, UniProt P00973-2 1-364)
T2 sequence: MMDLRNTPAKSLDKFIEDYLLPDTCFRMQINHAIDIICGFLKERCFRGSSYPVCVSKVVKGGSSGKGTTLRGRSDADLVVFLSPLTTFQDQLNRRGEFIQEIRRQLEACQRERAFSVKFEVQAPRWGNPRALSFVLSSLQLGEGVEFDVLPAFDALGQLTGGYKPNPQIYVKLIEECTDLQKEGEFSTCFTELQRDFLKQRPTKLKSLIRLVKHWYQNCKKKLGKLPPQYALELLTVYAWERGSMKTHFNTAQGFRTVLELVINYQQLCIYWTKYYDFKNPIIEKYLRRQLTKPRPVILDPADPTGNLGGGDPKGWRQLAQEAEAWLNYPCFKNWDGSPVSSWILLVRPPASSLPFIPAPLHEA

B1: WNV SLII/III (structured_RNA)
RNA: GCUGUUUCUUAGCACGAAGAUCUCGAUGUCUAAGAAACCAGGAGGGCCCGGCAAGAGCCGGGCUGUCAAUAUGCU

Key:
[1] = test system: T1, OAS1 p42 isoform (transcript variant 2), wild type (human), P00973-2; test: OAS1 activation kinetics (Kapp, PPi assay); conditions: pH 7.5, 10 min at room temperature (~20 C)
OAS1 S162G (human) = test: OAS1 activation kinetics (Kapp, PPi assay); conditions: pH 7.5, 10 min at room temperature (~20 C)
[2] = target: T2, OAS1 p42 isoform (transcript variant …); test: OAS1 activation kinetics (Kapp NA); 400 nM OAS1; no detectable affinity; […], pH 7.5, 10 min at room temperature (~20 C); […]; conditions: protein: recombinant; tags: none after TEV cleavage of N-terminal GNSHT tag (GB1, NusA, Streptavidin, 6xHis); label: none (SYBR Gold stain); stem loop
[3] = target: T2, OAS1 p42 isoform (transcript variant …); test: OAS1 activation kinetics (Kapp, PPi assay); 400 nM OAS1; […], pH 7.5, 10 min at room temperature (~20 C); […]; conditions: protein: recombinant; tags: none after TEV cleavage of N-terminal GNSHT tag (GB1, NusA, Streptavidin, 6xHis); label: none (SYBR Gold stain); two stem loops

Molecule | K half [1] | binding result [2] | other results
WNV SLI | 5830 nM | – | –
WNV SLI/II | 528 nM | – | –
WNV SLI/II/III | 1450 nM | – | K half (OAS1 S162G (human)): 1490 nM
AGGAGGGCCCGGCAAGAGCCGGGCUGUCAAUAUGCU (structured_RNA) [WNV SLIII] | – | no binding | –
GCUGUUUCUUAGCACGAAGAUCUCGAUGUCUAAGAAACC (structured_RNA) [WNV SLII] | – | no binding | –
B1 | – | – | apparent K (half saturation) [3]: 5.78 ± 0.452 µM

Source: PMC3961380, “Activation of 2′ 5′-Oligoadenylate Synthetase by Stem Loops at the 5′-End of the West Nile Virus Genome”
